Results taken from paper PMC3660568.

Columns and labels:
[1] = molecular target: anti-HER2 IgG1 heavy chain (biosimilar Herceptin); assay: non-reducing SDS-PAGE with western blot; crude supernatant of stably transfected CHO DG44 pools at the end of culture, non-reducing conditions; detected with anti-human IgG Fc and anti-human kappa LC antibodies; species assigned by molecular weight
[2] = molecular target: anti-HER2 IgG1 light chain (biosimilar Herceptin); assay: as above

| stoichiometry N [1] | stoichiometry N [2] | Substance |
| --- | --- | --- |
| 2 |  | anti-HER2 IgG1 heavy chain (biosimilar Herceptin) |
|  | 2 | anti-HER2 IgG1 light chain (biosimilar Herceptin) |
